For series [1], the target named is CLPB-NBD (NBD-only variant, N-terminal ANK domain truncated) (human) (UniProt Q9H078). Briefly: cryo-EM 2D classification.
Series [2] addresses CLPB^isoform1 (isoform-1 of CLPB) (human). Briefly: negative-stain EM + cryo-EM 2D classification.
Series [3] addresses CLPB-NBD^E425Q (human) (UniProt Q9H078). Briefly: cryo-EM structure.
Series [4] deals with the molecule itself. Nature of the series: SEC.
Series [5] deals with the molecule itself. Nature of the series: cryo-EM 2D classification.
Series [6] concerns the molecule itself. Nature of the series: cryo-EM structure.
Series [7] concerns the molecule itself. Nature of the series: SEC + other: negative-stain EM.
Series [8] deals with the molecule itself. Briefly: cryo-EM structure. This is another data set of the same source.

Values joined by “and” are separate entries in the source; they are usually repeats but may differ in a detail not shown here. Identical values can stand only once.

For “CLPB-NBD (NBD-only variant, N-terminal ANK domain truncated) (from UniProt Q9H078-2 1-677) (domain or fragment)”, in series [1], the stoichiometry N is 6 and 7.

As to “CLPB^isoform1 (isoform-1 of CLPB) (enzyme)”, in series [2], the stoichiometry N amounted to 14. With “CLPB-NBD^E425Q (from UniProt Q9H078-2 1-677) (domain or fragment)”, the stoichiometry N in series [3] is 6 and 7 and 9.

B1: CLPB^Δ201-232 (insertion between AM2 and AM3 deleted) (enzyme)
chain: YSKSPSNKDAALLEAARANNMQEVSRLLSEGADVNAKHRLGWTALMVAAINRNNSVVQVLLAAGADPNLGDDFSSFKGCTALHYAVLADDYRTVKELLDGGANPLQRNEMGHTPLDYAREGEVMKLLRTSEAKYQEKQRKREAEERRRFPLEQRLKEHIIGQESAIATVGAAIRRKENGWYDEEHPLVFLFLGSSGIGKTELAKQTAKYMHKDAKKGFIRLDMSEFQERHEVAKFIGSPPGYVGHEEGGQLTKKLKQCPNAVVLFDEVDKAHPDVLTIMLQLFDEGRLTDGKGKTIDCKDAIFIMTSNVASDEIAQHALQLRQEALEMSRNRIAENLGDVQISDKITISKNFKENVIRPILKAHFRRDEFLGRINEIVYFLPFCHSELIQLVNKELNFWAKRAKQRHNITLLWDREVADVLVDGYNVHYGARSIKHEVERRVVNQLAAAYEQDLLPGGCTLRITVEDSDKQLLKSPELPSPQAEKRLPKLRLEIIDKDSKTRRLDIRAPLHPEKVCNTI
On to B1, for which the binding result in series [4] is “binds”.

B2: CLPB-N127 (human CLPB isoform 2 starting from the PARL cleavage site), wild type (enzyme)
chain: YSKSPSNKDAALLEAARANNMQEVSRLLSEGADVNAKHRLGWTALMVAAINRNNSVVQVLLAAGADPNLGDDFSSVYKTAKEQGIHSLEVLITREDDFNNRLNNRASFKGCTALHYAVLADDYRTVKELLDGGANPLQRNEMGHTPLDYAREGEVMKLLRTSEAKYQEKQRKREAEERRRFPLEQRLKEHIIGQESAIATVGAAIRRKENGWYDEEHPLVFLFLGSSGIGKTELAKQTAKYMHKDAKKGFIRLDMSEFQERHEVAKFIGSPPGYVGHEEGGQLTKKLKQCPNAVVLFDEVDKAHPDVLTIMLQLFDEGRLTDGKGKTIDCKDAIFIMTSNVASDEIAQHALQLRQEALEMSRNRIAENLGDVQISDKITISKNFKENVIRPILKAHFRRDEFLGRINEIVYFLPFCHSELIQLVNKELNFWAKRAKQRHNITLLWDREVADVLVDGYNVHYGARSIKHEVERRVVNQLAAAYEQDLLPGGCTLRITVEDSDKQLLKSPELPSPQAEKRLPKLRLEIIDKDSKTRRLDIRAPLHPEKVCNTI
In the case of B2, the “stoichiometry N” value in series [5] was determined as 12; in series [6] it was 14.

B3: CLPB^R227E (enzyme)
chain: YSKSPSNKDAALLEAARANNMQEVSRLLSEGADVNAKHRLGWTALMVAAINRNNSVVQVLLAAGADPNLGDDFSSVYKTAKEQGIHSLEVLITREDDFNNELNNRASFKGCTALHYAVLADDYRTVKELLDGGANPLQRNEMGHTPLDYAREGEVMKLLRTSEAKYQEKQRKREAEERRRFPLEQRLKEHIIGQESAIATVGAAIRRKENGWYDEEHPLVFLFLGSSGIGKTELAKQTAKYMHKDAKKGFIRLDMSEFQERHEVAKFIGSPPGYVGHEEGGQLTKKLKQCPNAVVLFDEVDKAHPDVLTIMLQLFDEGRLTDGKGKTIDCKDAIFIMTSNVASDEIAQHALQLRQEALEMSRNRIAENLGDVQISDKITISKNFKENVIRPILKAHFRRDEFLGRINEIVYFLPFCHSELIQLVNKELNFWAKRAKQRHNITLLWDREVADVLVDGYNVHYGARSIKHEVERRVVNQLAAAYEQDLLPGGCTLRITVEDSDKQLLKSPELPSPQAEKRLPKLRLEIIDKDSKTRRLDIRAPLHPEKVCNTI
In the case of B3, the binding result in series [7] is recorded as “binds”.

B4: CLPB^R178E (enzyme)
chain: YSKSPSNKDAALLEAARANNMQEVSRLLSEGADVNAKHRLGWTALMVAAINENNSVVQVLLAAGADPNLGDDFSSVYKTAKEQGIHSLEVLITREDDFNNRLNNRASFKGCTALHYAVLADDYRTVKELLDGGANPLQRNEMGHTPLDYAREGEVMKLLRTSEAKYQEKQRKREAEERRRFPLEQRLKEHIIGQESAIATVGAAIRRKENGWYDEEHPLVFLFLGSSGIGKTELAKQTAKYMHKDAKKGFIRLDMSEFQERHEVAKFIGSPPGYVGHEEGGQLTKKLKQCPNAVVLFDEVDKAHPDVLTIMLQLFDEGRLTDGKGKTIDCKDAIFIMTSNVASDEIAQHALQLRQEALEMSRNRIAENLGDVQISDKITISKNFKENVIRPILKAHFRRDEFLGRINEIVYFLPFCHSELIQLVNKELNFWAKRAKQRHNITLLWDREVADVLVDGYNVHYGARSIKHEVERRVVNQLAAAYEQDLLPGGCTLRITVEDSDKQLLKSPELPSPQAEKRLPKLRLEIIDKDSKTRRLDIRAPLHPEKVCNTI
B4: the binding result in series [7] is reported as “binds”.

B5: CLPB^E425Q (Walker B mutant of CLPB-N127, isoform 2) (enzyme)
chain: YSKSPSNKDAALLEAARANNMQEVSRLLSEGADVNAKHRLGWTALMVAAINRNNSVVQVLLAAGADPNLGDDFSSVYKTAKEQGIHSLEVLITREDDFNNRLNNRASFKGCTALHYAVLADDYRTVKELLDGGANPLQRNEMGHTPLDYAREGEVMKLLRTSEAKYQEKQRKREAEERRRFPLEQRLKEHIIGQESAIATVGAAIRRKENGWYDEEHPLVFLFLGSSGIGKTELAKQTAKYMHKDAKKGFIRLDMSEFQERHEVAKFIGSPPGYVGHEEGGQLTKKLKQCPNAVVLFDQVDKAHPDVLTIMLQLFDEGRLTDGKGKTIDCKDAIFIMTSNVASDEIAQHALQLRQEALEMSRNRIAENLGDVQISDKITISKNFKENVIRPILKAHFRRDEFLGRINEIVYFLPFCHSELIQLVNKELNFWAKRAKQRHNITLLWDREVADVLVDGYNVHYGARSIKHEVERRVVNQLAAAYEQDLLPGGCTLRITVEDSDKQLLKSPELPSPQAEKRLPKLRLEIIDKDSKTRRLDIRAPLHPEKVCNTI
Consider B5, for which the “stoichiometry N” value in series [8] turned out to be 12.

(Values after publication doi:10.1101/2022.10.28.514188 (bioRxiv, 2022).)
